Experimental data as given in paper PMC2900200 (2008).

T1: Methuselah (Mth) ectodomain, C-terminal biotinylated (Drosophila melanogaster)
T1 sequence (O97148 whole entry, looked up): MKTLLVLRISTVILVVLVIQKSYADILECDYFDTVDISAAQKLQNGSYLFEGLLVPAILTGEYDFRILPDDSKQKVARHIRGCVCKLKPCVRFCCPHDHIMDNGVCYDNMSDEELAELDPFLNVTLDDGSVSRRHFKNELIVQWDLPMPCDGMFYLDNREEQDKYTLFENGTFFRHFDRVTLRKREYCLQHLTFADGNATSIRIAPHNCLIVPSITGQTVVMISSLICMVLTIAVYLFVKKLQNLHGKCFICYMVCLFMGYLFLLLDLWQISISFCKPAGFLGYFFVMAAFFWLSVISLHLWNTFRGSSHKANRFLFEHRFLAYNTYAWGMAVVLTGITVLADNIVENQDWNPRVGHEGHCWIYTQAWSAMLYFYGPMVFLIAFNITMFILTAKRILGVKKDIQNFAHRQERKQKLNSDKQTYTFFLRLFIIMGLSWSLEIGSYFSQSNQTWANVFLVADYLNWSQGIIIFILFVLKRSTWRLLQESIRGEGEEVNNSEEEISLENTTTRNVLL

T2: LP1 peptide
T2 chain: FPSSWLQRYYLAKRR


biological target: T1, Methuselah (Mth) ectodomain, C-terminal biotinylated (Drosophila melanogaster); assay: SPR

Binder | Kd [nM]
Ac-FPSSFLQRYYLAKRR-NH2 [LP1 W5F mutant peptide] | 12000
Ac-FPSSWLQRYYLAKRQ-NH2 [LP1 R15Q mutant peptide] | 37.7
Ac-FPSSWLQRYYQAKRR-NH2 [LP1 L11Q mutant peptide] | 24.5
Ac-FPSSKLQRYYLAKRR-NH2 [LP1 W5K mutant peptide] | > 15000
Ac-FPSSWLQRFYLAKRR-NH2 [LP1 Y9F mutant peptide] | 49.5
Ac-FPSSWLQRYYLAKRR-NH2 [LP1 peptide (wild type)] | 18.5

Biological target: T2, LP1 peptide
Assay: not given

Binder | Kd [nM]
Methuselah ectodomain (protein) DILECDYFDTVDISAAQKLQNGSYLFEGLLVPAILTGEYDFRILPDDSKQKVARHIRGCVCKLKPCVRFCCPHDHIMDNGVCYDNMSDEELAELDPFLNVTLDDGSVSRRHFKNELIVQWDLPMPCDGMFYLDNREEQDKYTLFENGTFFRHFDRVTLRKREYCLQHLTFADGNATSIRIAPHNCLIVPSITGQ | 18
